In experiment [1] the target is T1, murine Jagged 1, full length, on B16F10 cells (mouse, UniProt Q9QXX0 34-1218).
T1 construct: whole, on cells; GFP co-expressed; also called mJ1; B16F10-mJAG1
The experiment can be described thus: FACS, B16F10-mJAG1 cells, anti-human-APC. As to the method: FIG. 19. […] Samples were analysed by FACS and the mean fluorescence intensities (MFI) were plotted.
(§1) HEK293 cells transfected with human J1, J2 or FLAG-EGFP-tagged DSL-EGF3 constructs, B16F10 cells transfected with human DLL4 or mouse J1, and human cancer cell lines, were stained with either purified anti-J1 antibodies at 10 μg/ml diluted in FACS wash buffer (2% FBS in PBS+0.1% sodium azide) or neat hybridoma supernatants followed by a allophycocyanin (APC)-conjugated secondary antibody at 1:200 dilution: for murine primary antibodies, used goat anti-mouse-APC (eBioscience); for humanised and chimeric antibodies used goat anti-human IgG (H+L) secondary antibody (Jackson ImmunoResearch Laboratories). After washing, samples were fixed with 1% paraformaldehyde (in PBS) and acquired with a FACSCalibur. FACS data were analysed with FlowJo software (TreeStar Inc.).
(In flow cytometry, cells or beads pass a laser one at a time.)

The target of experiment [2] is T2, human Jagged 2, full length, on HEK293 cells (human, UniProt Q9Y219 24-1238).
T2 construct: whole, on cells; also called J2; hJ2
T2 sequence (Q9Y219 24-1238): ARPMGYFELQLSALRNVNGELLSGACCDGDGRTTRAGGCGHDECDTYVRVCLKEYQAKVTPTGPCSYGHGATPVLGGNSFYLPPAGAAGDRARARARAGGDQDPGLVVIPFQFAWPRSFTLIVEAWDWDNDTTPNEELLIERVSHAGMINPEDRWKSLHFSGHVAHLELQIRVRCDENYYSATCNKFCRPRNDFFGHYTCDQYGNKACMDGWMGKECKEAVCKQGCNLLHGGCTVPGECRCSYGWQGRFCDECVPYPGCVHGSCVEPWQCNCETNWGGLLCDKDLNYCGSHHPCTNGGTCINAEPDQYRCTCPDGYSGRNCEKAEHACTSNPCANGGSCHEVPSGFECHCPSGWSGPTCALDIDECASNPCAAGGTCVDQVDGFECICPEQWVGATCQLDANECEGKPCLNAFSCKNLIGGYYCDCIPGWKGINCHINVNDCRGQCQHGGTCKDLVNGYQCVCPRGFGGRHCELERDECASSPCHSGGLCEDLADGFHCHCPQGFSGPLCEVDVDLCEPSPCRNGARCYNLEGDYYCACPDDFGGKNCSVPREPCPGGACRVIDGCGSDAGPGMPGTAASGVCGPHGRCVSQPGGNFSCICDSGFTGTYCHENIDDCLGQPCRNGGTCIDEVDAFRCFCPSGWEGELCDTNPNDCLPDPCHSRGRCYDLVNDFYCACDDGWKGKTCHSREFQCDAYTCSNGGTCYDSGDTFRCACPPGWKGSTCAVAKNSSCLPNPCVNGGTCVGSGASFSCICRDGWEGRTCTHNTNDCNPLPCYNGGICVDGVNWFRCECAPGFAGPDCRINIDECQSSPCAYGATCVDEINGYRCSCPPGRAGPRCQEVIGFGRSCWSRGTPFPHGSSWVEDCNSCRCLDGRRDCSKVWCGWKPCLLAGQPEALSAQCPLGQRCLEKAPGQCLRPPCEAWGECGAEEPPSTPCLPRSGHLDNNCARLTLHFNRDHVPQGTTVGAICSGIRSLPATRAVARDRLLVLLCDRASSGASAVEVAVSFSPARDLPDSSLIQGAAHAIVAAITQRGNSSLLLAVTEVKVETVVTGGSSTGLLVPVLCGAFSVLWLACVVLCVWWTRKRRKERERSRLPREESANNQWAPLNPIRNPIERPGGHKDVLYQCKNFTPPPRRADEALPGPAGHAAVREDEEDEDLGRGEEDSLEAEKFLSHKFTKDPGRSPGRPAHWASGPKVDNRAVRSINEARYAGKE
Kind of experiment: FACS, 293-JAG2 cells, anti-human-APC. As to the method: FIG. 18. […] Samples were analysed by FACS and the mean fluorescence intensities (MFI) were plotted. […] With the exception of J1-65D variants 13-16, all the remaining antibodies effectively bound the human J1 protein.
as §1

For experiment [3], the target named is T3, J1 DSL-EGF3 soluble recombinant protein (human Jagged 1 amino acids 185-335) (human, UniProt P78504 185-335).
T3 construct: biotinylated in the CD46 ELISA; also called J1-DE3; DSL+EGF1-3
T3 sequence (P78504 185-335, form in doubt): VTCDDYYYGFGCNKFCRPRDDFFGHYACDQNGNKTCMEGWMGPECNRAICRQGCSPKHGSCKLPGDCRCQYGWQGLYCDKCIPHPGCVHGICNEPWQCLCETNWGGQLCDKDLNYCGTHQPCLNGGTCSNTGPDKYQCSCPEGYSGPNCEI
The experiment can be described thus: affinity to the immunogen J1-DE3; method not stated.

Twelve molecules from patent publication US20160108128A1 (CANCER RESEARCH TECHNOLOGY, published 2016) can be followed below.

T1 sequence (Q9QXX0 34-1218, one chain of several): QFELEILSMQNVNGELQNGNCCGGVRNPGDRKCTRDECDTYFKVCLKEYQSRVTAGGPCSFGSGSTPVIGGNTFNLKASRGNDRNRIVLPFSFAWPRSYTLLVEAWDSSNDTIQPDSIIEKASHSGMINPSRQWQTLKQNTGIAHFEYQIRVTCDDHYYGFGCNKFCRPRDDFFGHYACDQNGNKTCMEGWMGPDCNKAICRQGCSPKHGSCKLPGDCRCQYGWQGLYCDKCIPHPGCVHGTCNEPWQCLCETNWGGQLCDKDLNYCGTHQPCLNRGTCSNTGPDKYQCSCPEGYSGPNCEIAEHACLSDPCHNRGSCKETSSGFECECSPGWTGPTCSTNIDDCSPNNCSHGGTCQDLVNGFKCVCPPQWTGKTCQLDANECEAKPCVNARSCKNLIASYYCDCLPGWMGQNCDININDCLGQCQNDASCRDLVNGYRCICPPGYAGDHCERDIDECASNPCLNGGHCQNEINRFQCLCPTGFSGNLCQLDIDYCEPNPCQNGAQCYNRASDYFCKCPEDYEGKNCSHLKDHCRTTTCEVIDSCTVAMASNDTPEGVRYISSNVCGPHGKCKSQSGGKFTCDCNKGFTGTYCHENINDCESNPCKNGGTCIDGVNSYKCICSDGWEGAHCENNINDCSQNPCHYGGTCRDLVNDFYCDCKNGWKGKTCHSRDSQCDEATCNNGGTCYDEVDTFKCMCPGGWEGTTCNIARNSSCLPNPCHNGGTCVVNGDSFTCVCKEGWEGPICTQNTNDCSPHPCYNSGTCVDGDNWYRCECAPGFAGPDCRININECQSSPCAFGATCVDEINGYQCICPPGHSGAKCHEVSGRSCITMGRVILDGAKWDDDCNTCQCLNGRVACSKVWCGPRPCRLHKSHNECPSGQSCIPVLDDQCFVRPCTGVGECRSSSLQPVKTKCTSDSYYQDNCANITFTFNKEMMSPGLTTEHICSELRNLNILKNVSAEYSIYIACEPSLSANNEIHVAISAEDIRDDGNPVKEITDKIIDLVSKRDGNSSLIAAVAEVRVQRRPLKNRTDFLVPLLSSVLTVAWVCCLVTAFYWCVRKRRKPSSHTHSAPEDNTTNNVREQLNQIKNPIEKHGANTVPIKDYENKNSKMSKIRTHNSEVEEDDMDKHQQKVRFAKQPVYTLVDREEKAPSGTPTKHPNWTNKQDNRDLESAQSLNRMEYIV

B1: J1-65D chimeric (antibody, human IgG1, V domains shown)
VH: QVQLQQPGAELVRPGASVKLSCKALGYTFTDYEMHWVKETPVHGLEWIGAIQPGGGGTAYNQKFKGKATLTADKSSSTAYMELSSLTSEDSAVYYCTRRGYDDYPFAYWGQGTLVTVSS
VL: DIQLTQSPASLSASVGETVTITCRASGNIHNYLAWYQQKQGKSPQLLVYNAKTLADDIPSRFSGSGSGTQYSLKINSLQPEDFGSYYCQHFWSAPWTFGGGTKLEIK
notes: chimeric antibody with unaltered CDRs; vectors encode human IgG1
Take B1: the binding result in experiment [1] and in experiment [2] was “no binding (tested: 10 ug/ml)” in each case.

B2: J1-183D chimeric (antibody, human IgG1, V domains shown)
VH: QVQLQQPGTELVRPGVSVKISCKVSGYAFTDYAIHWIMQSHAKSLEWIGIINTYYGDSKYNQKFKDKATMTVDKSSNTAYMELARLTSEDSAIYYCARGYDGFAYWGQGTLVTVSS
VL: DIQLTQSPASLSASVGETVTFTCRTSENIYSYLTWYQQKQGKSPQLLVYNAKILAAGVPSRFSGYGSGTQFSLKINSLQPEDFGTYYCQHHYDIPWTFGGGTKLEIK
notes: as for B1
With B2, the binding result in experiment [1] and in experiment [2] was “no binding (tested: 10 ug/ml)” each time.

B3: J1-65D variant 14 (antibody, human IgG1, V domains shown)
VH: QVQLVQSGAELKKPGSSVKVSCKASGYTFTDYEMHWVRQAPGQGLEWMGAIQPGGGGTAYAQKFKGRVTLTADKSTSTAYMELSSLRSEDTAVYYCTRRGYDDYPFAYWGQGTLVTVSS
VL: DIQMTQSPSSLSASVGDRVTITCRASQGIHNYLAWYQQKPGKAPKLLIYNAKTLADAVPSRFSGSGSGTDYTLTISSLQPEDFATYYCQQFWSAPWTFGQGTKLEIK
notes: human IgG1; also called J1-65DV14; V14
For orientation: Kd means the free concentration of one partner at which half of the binding sites on the other are occupied at equilibrium, for simple one-to-one binding. Consider B3, for which the binding result in experiment [1] and in experiment [2] was “no binding (tested: 10 ug/ml)” in each case. Further, the Kd in experiment [3] worked out at 58.3 nM.

B4: J1-65D variant 16 (antibody, human IgG1, V domains shown)
VH: QVQLVQSGAEVKKPGSSVKVSCKASGYTFTDYEMHWVRQAPGQGLEWMGAIQPGGGGTAYAQKFQGRVTITADKSTSTAYMELSSLRSEDTAVYYCTRRGYDDYPFAYWGQGTLVTVSS
VL: DIQMTQSPSSLSASVGDRVTITCRASQGIHNYLAWYQQKPGKAPKLLIYNAKTLADAVPSRFSGSGSGTDYTLTISSLQPEDFATYYCQQFWSAPWTFGQGTKLEIK
notes: human IgG1; also called J1-65DV16; V16
Take B4: the binding result in experiment [1] and in experiment [2] was “no binding (tested: 10 ug/ml)” in each case. In addition, the Kd in experiment [3] came to 52.1 nM.

B5: J1-65D variant 15 (antibody, human IgG1, V domains shown)
VH: QVQLVQSGAEVKKPGSSVKVSCKASGYTFTDYEMHWVRQAPGQGLEWMGAIQPGGGGTAYAQKFQGRVTLTADKSTSTAYMELSSLRSEDTAVYYCTRRGYDDYPFAYWGQGTLVTVSS
VL: DIQMTQSPSSLSASVGDRVTITCRASQGIHNYLAWYQQKPGKAPKLLIYNAKTLADAVPSRFSGSGSGTDYTLTISSLQPEDFATYYCQQFWSAPWTFGQGTKLEIK
notes: human IgG1; also called J1-65DV15; V15
In the case of B5, the binding result in experiment [1] and in experiment [2] was “no binding (tested: 10 ug/ml)” each time. Moreover, in experiment [3], the Kd was 39.8 nM.

B6: J1-65D variant 13 (antibody, human IgG1, V domains shown)
VH: QVQLVQSGAELKKPGSSVKVSCKASGYTFTDYEMHWVRQAPGQGLEWMGAIQPGGGGTAYNQKFKGRVTLTADKSTSTAYMELSSLRSEDTAVYYCTRRGYDDYPFAYWGQGTLVTVSS
VL: DIQMTQSPSSLSASVGDRVTITCRASQGIHNYLAWYQQKPGKAPKLLIYNAKTLADAVPSRFSGSGSGTDYTLTISSLQPEDFATYYCQQFWSAPWTFGQGTKLEIK
notes: human IgG1; also called J1-65DV13; V13
Consider B6, for which the binding result in experiment [1] and in experiment [2] was “no binding (tested: 10 ug/ml)” in each case. Besides, the equilibrium dissociation constant (Kd) in experiment [3] turned out to be 14.2 nM.

B7: J1-183D variant 10 (antibody, human IgG1, V domains shown)
VH: QVQLVQSGAELKKPGASVKVSCKVSGYAFTDYAIHWIRQAPGQGLEWMGIINTYYGDSKYAQKFQGRVTMTVDTSTSTAYMELSSLRSEDTAVYYCARGYDGFAYWGQGTLVTVSS
VL: DIQMTQSPSSLSASVGDRVTITCRTSENIYSYLTWYQQKPGKAPKLLIYNAKILDSGVPSRFSGSGSGTDFTLTISSLQPEDFATYYCQHHYDIPWTFGGGTKLEIKR
notes: human IgG1; also called J1-183DV10; V10
For B7, the binding result in experiment [1] and in experiment [2] was “no binding (tested: 10 ug/ml)” throughout. Moreover, the dissociation constant Kd in experiment [3] is 1.77 nM.

B8: J1-183D variant 4 (antibody, human IgG1, V domains shown)
VH: QVQLVQSGAEVKKPGASVKVSCKASGYTFTDYAIHWVRQAPGQGLEWMGIINTYYGDSKYAQKFQGRVTMTVDTSTSTAYMELSSLRSEDTAVYYCARGYDGFAYWGQGTLVTVSS
VL: DIQMTQSPSSLSASVGDRVTITCRTSENIYSYLTWYQQKPGKAPKLLVYNAKILAAGVPSRFSGSGSGTDFTLTISSLQPEDFATYYCQHHYDIPWTFGGGTKLEIKR
notes: human IgG1; also called J1-183DV4; V4
For the molecule B8, the binding result in experiment [1] and in experiment [2] was “no binding (tested: 10 ug/ml)” throughout. In experiment [3], the dissociation constant Kd was 2.76 nM.

B9: J1-183D variant 1 (antibody, human IgG1, V domains shown)
VH: QVQLVQSGAELKKPGASVKVSCKVSGYAFTDYAIHWIRQAPGQGLEWMGIINTYYGDSKYNQKFKDRVTMTVDKSTSTAYMELSSLRSEDTAVYYCARGYDGFAYWGQGTLVTVSS
VL: DIQMTQSPSSLSASVGDRVTITCRTSENIYSYLTWYQQKPGKAPKLLVYNAKILAAGVPSRFSGSGSGTDFTLTISSLQPEDFATYYCQHHYDIPWTFGGGTKLEIKR
notes: human IgG1; also called J1-183DV1; V1
Turning to B9, the binding result in experiment [1] and in experiment [2] was “no binding (tested: 10 ug/ml)” each time. Moreover, the Kd in experiment [3] stood at 0.77 nM.

B10: J1-183D variant 2 (antibody, human IgG1, V domains shown)
VH: QVQLVQSGAELKKPGASVKVSCKVSGYAFTDYAIHWIRQAPGQGLEWMGIINTYYGDSKYAQKFQGRVTMTVDTSTSTAYMELSSLRSEDTAVYYCARGYDGFAYWGQGTLVTVSS
VL: DIQMTQSPSSLSASVGDRVTITCRTSENIYSYLTWYQQKPGKAPKLLVYNAKILAAGVPSRFSGSGSGTDFTLTISSLQPEDFATYYCQHHYDIPWTFGGGTKLEIKR
notes: human IgG1; also called J1-183DV2; V2
In the case of B10, the binding result in experiment [1] and in experiment [2] was “no binding (tested: 10 ug/ml)” throughout. In experiment [3], the Kd worked out at 2.19 nM.

B11: J1-183D variant 3 (antibody, human IgG1, V domains shown)
VH: QVQLVQSGAELKKPGASVKVSCKVSGYAFTDYAIHWVRQAPGQGLEWMGIINTYYGDSKYAQKFQGRVTMTVDTSTSTAYMELSSLRSEDTAVYYCARGYDGFAYWGQGTLVTVSS
VL: DIQMTQSPSSLSASVGDRVTITCRTSENIYSYLTWYQQKPGKAPKLLVYNAKILAAGVPSRFSGSGSGTDFTLTISSLQPEDFATYYCQHHYDIPWTFGGGTKLEIKR
notes: human IgG1; also called J1-183DV3; V3
Consider B11, for which the binding result in experiment [1] and in experiment [2] was “no binding (tested: 10 ug/ml)” throughout. Besides, in experiment [3], the dissociation constant (Kd) stood at 2.55 nM.

B12: J1-183D variant 5 (antibody, human IgG1, V domains shown)
VH: QVQLVQSGAELKKPGASVKVSCKVSGYAFTDYAIHWIRQAPGQGLEWMGIINTYYGDSKYNQKFKDRVTMTVDKSTSTAYMELSSLRSEDTAVYYCARGYDGFAYWGQGTLVTVSS
VL: DIQMTQSPSSLSASVGDRVTITCRTSENIYSYLTWYQQKPGKAPKLLIYNAKTLASGVPSRFSGSGSGTDFTLTISSLQPEDFATYYCQHHYDIPWTFGGGTKLEIKR
notes: human IgG1; also called J1-183DV5; V5
For the molecule B12, the binding result in experiment [1] and in experiment [2] was “no binding (tested: 10 ug/ml)” in each case. In addition, the dissociation constant Kd in experiment [3] is 2.75 nM.
